T1: amphyphisin SH3 (AMPH_HUMAN), P49418
T1 chain: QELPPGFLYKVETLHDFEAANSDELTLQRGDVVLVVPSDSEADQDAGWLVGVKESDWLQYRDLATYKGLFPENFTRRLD

B1: Q9Y6E0 364-377 (peptide)
chain: MKDIPKRPFSQSLS
B2: Q14209 197-210 (peptide)
chain: MFEDPTRPGKQQQL
B3: Q9Y2W3 70-83 (peptide)
chain: LVSIPERPLRPPSE
B4: Q13423 581-594 (peptide)
chain: MLDMFKRPTDPPEY
B5: Q96Q82 70-83 (peptide)
chain: LVSRLRRPVSEVSG
B6: O94901 782-795 (peptide)
chain: MFQALKRPDDTAFQ
B7: Q9NS62 435-448 (peptide)
chain: LWRRFGRPAKSSTP
B8: Q14934 712-726 (peptide)
chain: MDFSPPRPPYPSYP
B9: Q15428 237-251 (peptide)
chain: MNGLPPRPPLPESL
B10: P20849 777-790 (peptide)
chain: MAASLKRPDSGATG
B11: Q13573 443-456 (peptide)
chain: MAQSIYRPSKNLDK
B12: Q9P0N2 51-64 (peptide)
chain: MDGFLSRPSRPLLQ
B13: O94947 263-276 (peptide)
chain: MLLSPRRPTVEKRA
B14: Q08493 32-45 (peptide)
chain: LWRQPRRPIRIQQR
B15: Q96HR8 430-444 (peptide)
chain: MHNFPLRPPPPPPP
B16: Q9H455 29-42 (peptide)
chain: LYRGLSRPIRRTTQ
B17: Q13635 1311-1324 (peptide)
chain: LWPPLYRPRRDAFE
B18: O15399 995-1009 (peptide)
chain: AAQPPQKPPASYFA
B19: O00445 360-373 (peptide)
chain: MLANPRRPIAQWHS
B20: Q9NXU2 68-81 (peptide)
chain: AQARLKRPLKSLDG
B21: Q99743 799-812 (peptide)
chain: AQPQPLRPPRRVSS
B22: O95600 103-116 (peptide)
chain: MLQAPIRPPKPQSS
B23: Q9H4M9 114-127 (peptide)
chain: LVVDPRRPFRKLNA
B24: Q9Y2K2 611-624 (peptide)
chain: AQQLLKRPRGPSPL
B25: Q08050 1-14 (peptide)
chain: MKTSPRRPLILKRR
B26: Q96M26 524-538 (peptide)
chain: MEHSPQRPPRTEPT
B27: Q9BZJ7 289-302 (peptide)
chain: LYGLLQRPVRLALG
B28: Q9NPP7 87-101 (peptide)
chain: MLLLPPRPPHPRSS
B29: Q9NU18 93-107 (peptide)
chain: LYRFPGKPPTYVTD
B30: Q02246 907-921 (peptide)
chain: MKPPPRRPPGNISW
B31: Q96DN1 10-23 (peptide)
chain: LYWLLRRPSGVVLS
B32: Q9UPS6 353-366 (peptide)
chain: MKRKPGRPRRSPPS
B33: P11230 356-369 (peptide)
chain: LYLRLKRPKPERDL
B34: Q9GZZ2 864-877 (peptide)
chain: MKVHIKRPEMTSSS
B35: Q9Y4E6 583-597 (peptide)
chain: MKKGPTRPPRPSTP
B36: Q8WUS6 527-541 (peptide)
chain: MAGLPFRPPWGSLS
B37: Q9NW15 466-479 (peptide)
chain: MSRVFKRPFSEPSA
B38: Q13808 54-67 (peptide)
chain: MLAMPRRPDPVFLN
B39: P08700 68-81 (peptide)
chain: MENNLRRPNLEAFN
B40: P21579 394-407 (peptide)
chain: MLANPRRPIAQWHT
B41: O75833 1-14 (peptide)
chain: MLLRPRRPPPLAPP
B42: Q92876 108-121 (peptide)
chain: MLLRLARPAKLSEL

Target: T1, amphyphisin SH3 (AMPH_HUMAN), P49418
Assay: SPOT array

Point of comparison: B20, normalised SPOT signal, Boehringer light units (BLU); mean over the file's lines of this peptide 117. Against it:
- B1 — lower, 99.5
- B2 — lower, 18.6
- B3 — higher, 3540
- B4 — lower, 34.5
- B5 — lower, 112
- B6 — lower, 38.2
- B7 — lower, 105
- B8 — lower, 18
- B9 — lower, 58.1
- B10 — lower, 27.1
- B11 — higher, 153
- B12 — higher, 295
- B13 — higher, 344
- B14 — higher, 3170
- B15 — lower, 68.7
- B16 — higher, 789
- B17 — higher, 1260
- B18 — lower, 45.4
- B19 — lower, 33.7
- B21 — higher, 25300
- B22 — higher, 1050
- B23 — higher, 2940
- B24 — lower, 55.3
- B25 — higher, 150
- B26 — higher, 14500
- B27 — higher, 1270
- B28 — higher, 3000
- B29 — lower, 39
- B30 — higher, 1010
- B31 — higher, 180
- B32 — higher, 138
- B33 — lower, 42.9
- B34 — lower, 27.3
- B35 — higher, 10700
- B36 — lower, 73
- B37 — lower, 88.8
- B38 — lower, 57.7
- B39 — lower, 27.1
- B40 — lower, 108
- B41 — higher, 2650
- B42 — higher, 346

target: endophilin SH3 (SH3G2_HUMAN), Q99962; assay: SPOT array

Point of comparison: B26, normalised SPOT signal, Boehringer light units (BLU); mean over the file's lines of this peptide 1100. Against it:
- B1 — higher, 2820
- B2 — lower, 120
- B3 — lower, 310
- B4 — lower, 56.5
- B5 — lower, 96.8
- B6 — lower, 54.5
- B7 — lower, 114
- B8 — lower, 978
- B9 — higher, 9000
- B10 — lower, 34.5
- B11 — lower, 185
- B12 — lower, 236
- B13 — higher, 8300
- B14 — lower, 1000
- B15 — lower, 213
- B16 — lower, 234
- B17 — higher, 3920
- B18 — lower, 125
- B19 — lower, 551
- B20 — lower, 109
- B21 — higher, 1160
- B22 — higher, 2740
- B23 — lower, 179
- B24 — lower, 75.7
- B25 — higher, 2850
- B27 — higher, 1110
- B28 — higher, 11500
- B29 — lower, 157
- B30 — higher, 1910
- B31 — lower, 158
- B32 — lower, 989
- B33 — lower, 70.6
- B34 — lower, 163
- B35 — higher, 17300
- B36 — higher, 4340
- B37 — lower, 627
- B38 — lower, 214
- B39 — lower, 14.8
- B40 — lower, 122
- B41 — higher, 5190
- B42 — lower, 342

Source: article PMC314469, “Protein Interaction Networks by Proteome Peptide Scanning” (PLoS Biology, 2004)
